The supplement of paper PMC10567573

B1: CSNK1G1 (parent)
chain: GSLPWQGLKADTLKERYQKIGDTK
B2: SCNN1D (parent)
chain: IRVMVHGRNHTPFLGHHSFSVRPG

Variants of: B1
Test: protein stability index of a GFP-peptide fusion (GPS, HEK-293T) (PSI 1-6); higher = more stable
Conditions: c terminus: a fixed tail appended
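Further: lentivirally expressed fusions sorted by FACS into six bins by GFP to DsRed ratio, PSI derived from sequencing read proportions per bin multiplied by bin number.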

Variant | protein stability index
QSLPWQGLKADTLKERYQKIGDTK | 4.03
MSLPWQGLKADTLKERYQKIGDTK | 4.35
NSLPWQGLKADTLKERYQKIGDTK | 4.13
ESLPWQGLKADTLKERYQKIGDTK | 4.44
LSLPWQGLKADTLKERYQKIGDTK | 3.89
ASLPWQGLKADTLKERYQKIGDTK | 4.05
CSLPWQGLKADTLKERYQKIGDTK | 3.34
PSLPWQGLKADTLKERYQKIGDTK | 4.15
RSLPWQGLKADTLKERYQKIGDTK | 4.16
KSLPWQGLKADTLKERYQKIGDTK | 4.17
ISLPWQGLKADTLKERYQKIGDTK | 3.52
WSLPWQGLKADTLKERYQKIGDTK | 3.6
HSLPWQGLKADTLKERYQKIGDTK | 4
SSLPWQGLKADTLKERYQKIGDTK | 3.97
YSLPWQGLKADTLKERYQKIGDTK | 2.08
TSLPWQGLKADTLKERYQKIGDTK | 4.04

Variant | protein stability index
VSLPWQGLKADTLKERYQKIGDTK | 3.79
DSLPWQGLKADTLKERYQKIGDTK | 4.35
FSLPWQGLKADTLKERYQKIGDTK | 2.73
GPLPWQGLKADTLKERYQKIGDTK | 3.95
GLLPWQGLKADTLKERYQKIGDTK | 4.17
GGLPWQGLKADTLKERYQKIGDTK | 3.69
GDLPWQGLKADTLKERYQKIGDTK | 4.53
GHLPWQGLKADTLKERYQKIGDTK | 3.16
GELPWQGLKADTLKERYQKIGDTK | 4.6
GMLPWQGLKADTLKERYQKIGDTK | 4.07
GILPWQGLKADTLKERYQKIGDTK | 3.47
GCLPWQGLKADTLKERYQKIGDTK | 3.22
GFLPWQGLKADTLKERYQKIGDTK | 3.73
GNLPWQGLKADTLKERYQKIGDTK | 4.11
GKLPWQGLKADTLKERYQKIGDTK | 4.37
GALPWQGLKADTLKERYQKIGDTK | 4.14

Variants of: B2
Test: as above
Conditions: c terminus: a fixed tail appended

Variant | protein stability index
IRVMVHGANHTPFLGHHSFSVRPG | 2.25
IRVMVHGHNHTPFLGHHSFSVRPG | 3.06
IRVMVHGENHTPFLGHHSFSVRPG | 2.47
IRVMVHGRNHTPFLGHHSFSVRPN | 1.56
IRVMVHGRNHTPFLGHHSFSVRPR | 1.19
IRVMVHGRNHTPFLGHHSFSVRPI | 2.44
IRVMVHGRNHTPFLGHHSFSVRPK | 1.16
IRVMVHGRNHTPFLGHHSFSVRPD | 2.04
IRVMVHGRNHTPFLGHHSFSVRPH | 1.84
IRVMVHGRNHTPGLGHHSFSVRPG | 1.96
IRVMVHGRNHTPRLGHHSFSVRPG | 1
IRVMVHGRNHTPYLGHHSFSVRPG | 2.77
IRVMVHGRNHTPLLGHHSFSVRPG | 1.19
IRVMVHGRNHTPALGHHSFSVRPG | 4.08
IRVMVHGRNHTPHLGHHSFSVRPG | 1.36
IRVMVHGRNHTPFIGHHSFSVRPG | 2.76
IRVMVHGRNHTPFHGHHSFSVRPG | 2.23
IRVMVHGRNHTPFYGHHSFSVRPG | 2.42
IRVMVHGRNHTPFEGHHSFSVRPG | 1.8
IRVMVHGRNHTPFWGHHSFSVRPG | 2.98
IRVMVHGRNHTPFNGHHSFSVRPG | 2.43
IRVMVHGRNHTPFQGHHSFSVRPG | 2.67
IRVMVHGRNHTPFLGHHSMSVRPG | 1.87

Variant | protein stability index
IRVMVHGRNHTPFLGHHSRSVRPG | 1.09
IRVMVHGRNHTPFLGHHSNSVRPG | 1.09
IRVMVHGRNHTPFLGHHSQSVRPG | 1.77
IRVMVHGRNHTPFLGHHSGSVRPG | 1.52
IRVMVHGRNHTPFLGHHSPSVRPG | 1.01
IRVMVHGRNHTPFLGHHSTSVRPG | 2.35
IRVMVHGRNHTPFLGHHSDSVRPG | 1.53
IRVMVHGRNHTPFLGHHSHSVRPG | 1.91
IRVMVHGRNHTPFLGHHSISVRPG | 2.41
IRVMVHGRNHTPFLGHHSKSVRPG | 1.77
FRVMVHGRNHTPFLGHHSFSVRPG | 1.82
MRVMVHGRNHTPFLGHHSFSVRPG | 1.89
RRVMVHGRNHTPFLGHHSFSVRPG | 3.65
KRVMVHGRNHTPFLGHHSFSVRPG | 2.21
LRVMVHGRNHTPFLGHHSFSVRPG | 1.31
QRVMVHGRNHTPFLGHHSFSVRPG | 3
WRVMVHGRNHTPFLGHHSFSVRPG | 2.71
PRVMVHGRNHTPFLGHHSFSVRPG | 2.61
DRVMVHGRNHTPFLGHHSFSVRPG | 2.63
NRVMVHGRNHTPFLGHHSFSVRPG | 2.85
ARVMVHGRNHTPFLGHHSFSVRPG | 2.28
ERVMVHGRNHTPFLGHHSFSVRPG | 2.04
IPVMVHGRNHTPFLGHHSFSVRPG | 1.76

Variant | protein stability index
IGVMVHGRNHTPFLGHHSFSVRPG | 2.91
IDVMVHGRNHTPFLGHHSFSVRPG | 2.76
INVMVHGRNHTPFLGHHSFSVRPG | 2.13
IAVMVHGRNHTPFLGHHSFSVRPG | 2.26
IQVMVHGRNHTPFLGHHSFSVRPG | 1.58
ITVMVHGRNHTPFLGHHSFSVRPG | 1.51
ILVMVHGRNHTPFLGHHSFSVRPG | 2.6
IRWMVHGRNHTPFLGHHSFSVRPG | 1.6
IRSMVHGRNHTPFLGHHSFSVRPG | 2.13
IRLMVHGRNHTPFLGHHSFSVRPG | 2.11
IRPMVHGRNHTPFLGHHSFSVRPG | 2.75
IRKMVHGRNHTPFLGHHSFSVRPG | 3.58
IRHMVHGRNHTPFLGHHSFSVRPG | 2.07
IRDMVHGRNHTPFLGHHSFSVRPG | 2.17
IRRMVHGRNHTPFLGHHSFSVRPG | 2.13
IRGMVHGRNHTPFLGHHSFSVRPG | 2.33
IRAMVHGRNHTPFLGHHSFSVRPG | 2.42
IRQMVHGRNHTPFLGHHSFSVRPG | 1.91
IRNMVHGRNHTPFLGHHSFSVRPG | 1.85
IRVMAHGRNHTPFLGHHSFSVRPG | 2.48
IRVMGHGRNHTPFLGHHSFSVRPG | 2.89
IRVMPHGRNHTPFLGHHSFSVRPG | 2.12
IRVMEHGRNHTPFLGHHSFSVRPG | 2.64

Variant | protein stability index
IRVMTHGRNHTPFLGHHSFSVRPG | 1.89
IRVMNHGRNHTPFLGHHSFSVRPG | 1.66
IRVMHHGRNHTPFLGHHSFSVRPG | 2.32
IRVMMHGRNHTPFLGHHSFSVRPG | 3.81
IRVMQHGRNHTPFLGHHSFSVRPG | 1.87
IRVMVHGRNHTPFLGLHSFSVRPG | 3.83
IRVMVHGRNHTPFLGSHSFSVRPG | 2.26
IRVMVHGRNHTPFLGQHSFSVRPG | 3.16
IRVMVHGRMHTPFLGHHSFSVRPG | 5.71
IRVMVHGRGHTPFLGHHSFSVRPG | 2.67
IRVMVHGRYHTPFLGHHSFSVRPG | 4.19
IRVMVHGRCHTPFLGHHSFSVRPG | 1.89
IRVMVHGRVHTPFLGHHSFSVRPG | 3.7
IRVMVHGREHTPFLGHHSFSVRPG | 3.01
IRVMVHGRNHTPFLGHHDFSVRPG | 2.01
IRVMVHGRNHTPFLGHHIFSVRPG | 5.22
IRVMVHGRNHTPFLGHHPFSVRPG | 2.79
IRVMVHGRNHTPFLGHHSFKVRPG | 2.98
IRVMVHGRNHTPFLGHHSFTVRPG | 2.59
IRVMVHGRNHTPFLGHHSFNVRPG | 1.84
IRVMVHGRNHTPFLGHHSFIVRPG | 2.92
IRVMVHGRNHTRFLGHHSFSVRPG | 3.86
IRVMVHGRNHTYFLGHHSFSVRPG | 1.97

Variant | protein stability index
IRVMVHGRNHTHFLGHHSFSVRPG | 1.48
IRVMVHGRNHTIFLGHHSFSVRPG | 3.72
IRVMVHGRNETPFLGHHSFSVRPG | 1.94
IRVMVHGRNCTPFLGHHSFSVRPG | 2.19
IRVMVHGRNMTPFLGHHSFSVRPG | 2.15
IRVMVHGRNLTPFLGHHSFSVRPG | 3.2
IRVMVCGRNHTPFLGHHSFSVRPG | 2.51
IRVMVDGRNHTPFLGHHSFSVRPG | 2.53
IRVMVKGRNHTPFLGHHSFSVRPG | 3.76
IRVMVTGRNHTPFLGHHSFSVRPG | 2.35
IRVMVFGRNHTPFLGHHSFSVRPG | 1.91
IRVMVPGRNHTPFLGHHSFSVRPG | 2.34
IRVMVYGRNHTPFLGHHSFSVRPG | 2.35
IRVMVAGRNHTPFLGHHSFSVRPG | 2.13
IRVMVHGRNHTPFLGHHSFSARPG | 1.8
IRVMVHGRNHTPFLGHHSFSSRPG | 1.87
IRVMVHGRNHTPFLGHHSFSRRPG | 2.78
IRVMVHGRNHTPFLGHHSFSHRPG | 3.02
IRVMVHGRNHTPFLGHHSFSERPG | 1.41
IRVMVHGRNHTPFLGHHSFSDRPG | 1.42
IRVMVHGRNHTPFLGHHSFSNRPG | 1.49
IRVMVHGRNHTPFLGHHSFSFRPG | 2.91
IRVMVHGRNHTPFLGHHSFSLRPG | 2.48

Variant | protein stability index
IRVPVHGRNHTPFLGHHSFSVRPG | 3.2
IRVNVHGRNHTPFLGHHSFSVRPG | 2.92
IRVDVHGRNHTPFLGHHSFSVRPG | 1.88
IRVWVHGRNHTPFLGHHSFSVRPG | 2.32
IRVAVHGRNHTPFLGHHSFSVRPG | 1.92
IRVGVHGRNHTPFLGHHSFSVRPG | 1.5
IRVKVHGRNHTPFLGHHSFSVRPG | 1.72
IRVMVHGRNHTPFLGHKSFSVRPG | 2.99
IRVMVHGRNHTPFLGHVSFSVRPG | 2.27
IRVMVHGRNHTPFLGHESFSVRPG | 1.51
IRVMVHGRNHTPFLGHYSFSVRPG | 4.62
IRVMVHGRNHTPFLGHRSFSVRPG | 2.73
IRVMVHGRNHTPFLGHTSFSVRPG | 1.89
IRVMVHGRNHTPFLGHGSFSVRPG | 3.13
IRVMVHGRNHTPFLGHPSFSVRPG | 2.38
IRVMVHGRNHTPFLGHHSFSVFPG | 2.77
IRVMVHGRNHTPFLGHHSFSVGPG | 1.39
IRVMVHGRNHTPFLGHHSFSVPPG | 1.68
IRVMVHGRNHTPFLGHHSFSVDPG | 2.85
IRVMVHGRNHTPFLGHHSFSVSPG | 2.31
IRVMVHGRNHTPFLGHHSFSVWPG | 3.39
IRVMVHGRNHTPFLGHHSFSVRWG | 1.89
IRVMVHGRNHTPFLGHHSFSVRNG | 2.25

Variant | protein stability index
IRVMVHGRNHTPFLGHHSFSVRAG | 1.32
IRVMVHGRNHTPFLGHHSFSVRTG | 1.8
IRVMVHGRNHTPFLGHHSFSVRSG | 2.45
IRVMVHGRNHTPFLGHHSFSVRQG | 1.64
IRVMVHGRNHTPFLGHHSFSVRKG | 1.44
IRVMVHGRNHFPFLGHHSFSVRPG | 2.59
IRVMVHGRNHYPFLGHHSFSVRPG | 3.8
IRVMVHGRNHQPFLGHHSFSVRPG | 2.44
IRVMVHSRNHTPFLGHHSFSVRPG | 1.72
IRVMVHMRNHTPFLGHHSFSVRPG | 2.97
IRVMVHIRNHTPFLGHHSFSVRPG | 2.67
IRVMVHCRNHTPFLGHHSFSVRPG | 1.7
IRVMVHRRNHTPFLGHHSFSVRPG | 2.12
IRVMVHERNHTPFLGHHSFSVRPG | 2.05
IRVMVHGRNHTPFLVHHSFSVRPG | 4.3
IRVMVHGRNHTPFLQHHSFSVRPG | 1.54
IRVMVHGRNHTPFLTHHSFSVRPG | 1.88
IRVMVHGRNHTPFLEHHSFSVRPG | 4.06
